From publication PMC2765437

Experiments:
[1] = system: M-pol (MuLV RT polymerase domain) (MuLV); assay: EMSA; settings: 50 mM Tris-HCl pH 7.8, 60 mM KCl, 1 mM DTT, 0.01% NP40, 10% glycerol; 5 nM labeled template-primer, 10 uL; 6% native gel in Tris-borate pH 8.2 run at 4 C …
[2] = system: chimeric HIV-1 RT (HIV-1 RT polymerase domain + MuLV RT RNase H domain) (HIV-1 / MuLV chimera); assay: EMSA; settings: 50 mM Tris-HCl pH 7.8, 60 mM KCl, 1 mM DTT, 0.01% NP40, 10% glycerol; 5 nM labeled template-primer, 10 uL; 6% native gel in Tris-borate pH 8.2 run at 4 C …
[3] = system: chimeric MuLV RT (MHCI RT; MuLV RT polymerase domain + HIV-1 RT RNase H domain) (MuLV / HIV-1 chimera); assay: EMSA; settings: 50 mM Tris-HCl pH 7.8, 60 mM KCl, 1 mM DTT, 0.01% NP40, 10% glycerol; 5 nM labeled template-primer, 10 uL; 6% native gel in Tris-borate pH 8.2 run at 4 C …
[4] = system: wild-type HIV-1 RT (p66/66) (HIV-1); assay: EMSA; settings: 50 mM Tris-HCl pH 7.8, 60 mM KCl, 1 mM DTT, 0.01% NP40, 10% glycerol; 5 nM labeled template-primer, 10 uL; 6% native gel in Tris-borate pH 8.2 run at 4 C …
wild-type MuLV RT (MuLV) = assay: EMSA; settings: 50 mM Tris-HCl pH 7.8, 60 mM KCl, 1 mM DTT, 0.01% NP40, 10% glycerol; 5 nM labeled template-primer, 10 uL; 6% native gel in Tris-borate pH 8.2 run at 4 C …
[5] = molecular target: wild-type p66/66 HIV-1 RT (human immunodeficiency virus type 1 reverse transcriptase) (human immunodeficiency virus type 1); assay: glycerol gradient ultracentrifugation; 50 micrograms of each enzyme alone on 5 ml of 10%-30% linear glycerol gradient in 50 mM Tris HCl pH 8.0, 400 mM NaCl; 48,000 rpm, 20-24 h, SW 50.1 rotor; fractions from the bottom analysed by SDS-PAGE and Coomassie blue

Row | Substance | Kd [1] | Kd [2] | Kd [3] | Kd [4] | Kd (wild-type MuLV RT (MuLV)) | stoichiometry N [5]
1 | 49-mer DNA template / 17-mer PBS DNA primer | 1.2 nM | 1.5 nM | 3.3 nM | 3.2 nM | 2.7 nM | –
2 | wild-type p66/66 HIV-1 RT (human immunodeficiency virus type 1 reverse transcriptase) (enzyme) | – | – | – | – | – | 2
